Assays:
[1] = target: Pre-complex of TgELC2 with TgMyoA-C (T. gondii) (UniProt O00934); assay: ITC; 200 uM protein (syringe) injected 19 x 2 uL into 20 uM pre-formed complex of light chain and MyoA peptide (cell, 1:1.1); 20 mM HEPES pH 7.5, 150 mM NaCl, 0.5 mM TCEP with 1 mM CaCl2; 25 °C; one-site model
[2] = target: P. falciparum myosin A tail-interacting protein, short construct (MTIP-S) (P. falciparum 3D7) (UniProt Q8I4W8); assay: ITC; MTIP in the cell, PfMyoA peptide in the syringe; one-site model; the conditions of this titration are not told
[3] = target: Pre-complex of TgELC2 R17A with TgMyoA-C (T. gondii) (UniProt O00934); assay: ITC; 200 uM protein (syringe) injected 19 x 2 uL into 20 uM pre-formed complex of light chain and MyoA peptide (cell, 1:1.1); 20 mM HEPES pH 7.5, 150 mM NaCl, 0.5 mM TCEP with 1 mM CaCl2; 25 °C; one-site model
[4] = target: Pre-complex of TgELC1 with TgMyoA-C (T. gondii) (UniProt O00934); assay: as above
[5] = target: TgELC2 S102E (phosphomimetic) (T. gondii); assay: ITC; 200 uM peptide (syringe) injected 19 x 2 uL into 20 uM protein (cell); 20 mM HEPES pH 7.5, 150 mM NaCl, 0.5 mM TCEP with 5 mM CaCl2; 25 °C; one-site model
[6] = target: T. gondii essential light chain 2 (TgELC2) (T. gondii); assay: as above
TgELC2 S101A (T. gondii) = assay: as above
TgELC2 E10A (T. gondii) = assay: as above
TgELC2 F79A (T. gondii) = assay: as above
[7] = target: T. gondii essential light chain 1 (TgELC1) (T. gondii); assay: as above
TgELC2 S102A (T. gondii) = assay: as above
[8] = target: TgELC2 E10A+H110A (T. gondii); assay: as above
[9] = target: T. gondii essential light chain 2 (TgELC2) (T. gondii); assay: ITC; 200 uM peptide (syringe) injected 19 x 2 uL into 20 uM protein (cell); 20 mM HEPES pH 7.5, 150 mM NaCl, 0.5 mM TCEP with 5 mM EDTA; 25 °C; one-site model
[10] = target: T. gondii essential light chain 1 (TgELC1) (T. gondii); assay: as above
MTIP residues 77-204 = target: T1, MTIP residues 77-204 (P. falciparum 3D7, UniProt Q8I4W8 77-204); assay: crystal structure; conditions: both partners purified
T1 construct: source: recombinantly expressed as a dimeric complex with PfMyoA-C, purified with PfELC (NiNTA IMAC, TEV, SEC)
T1 sequence: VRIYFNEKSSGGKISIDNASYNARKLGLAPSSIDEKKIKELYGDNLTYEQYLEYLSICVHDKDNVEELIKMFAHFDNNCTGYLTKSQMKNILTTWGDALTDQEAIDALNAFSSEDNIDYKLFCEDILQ

[11] = target: T2, Pre-complex of MTIP-S with PfMyoA-C (P. falciparum 3D7 | P. falciparum, UniProt Q8I4W8;Q8IDR3); assay: ITC; 200 uM protein (syringe) injected 19 x 2 uL into 20 uM pre-formed complex of light chain and MyoA peptide (cell, 1:1.1); 20 mM HEPES pH 7.5, 150 mM NaCl, 0.5 mM TCEP with 1 mM CaCl2; 25 °C; one-site model; conditions: both partners purified
T2 construct: also called MTIP pre-complex with MyoA-C; MTIP/PfMyoA-C complex; source: formed from purified MTIP-S (E. coli) and the MyoA peptide in 1:1.1 molar ratio, 1 h at 4 °C
T2 sequence 1: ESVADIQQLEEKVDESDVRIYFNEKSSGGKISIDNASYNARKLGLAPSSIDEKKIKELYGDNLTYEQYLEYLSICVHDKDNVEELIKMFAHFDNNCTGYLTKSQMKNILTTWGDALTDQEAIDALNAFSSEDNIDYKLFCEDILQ
T2 sequence 2: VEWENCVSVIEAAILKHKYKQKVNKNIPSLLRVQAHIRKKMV

Molecule MLC1-S K168A (domain or fragment) has a Kd [1] of 1.2 nM, a dH [1] of -47.7 kcal/mol and a stoichiometry N [1] of 0.79.

MLC1-S Q169A (domain or fragment) gave a Kd [1] of 2.3 nM, a dH [1] of -48.8 kcal/mol and a stoichiometry N [1] of 0.89.

For PfMyoA-C^ELC peptide, the Kd [2] was 303 nM, the dH [2] was -14.4 kcal/mol and the stoichiometry N [2] was 0.74.

Work on “T. gondii myosin light chain 1, short construct (MLC1-S) (domain or fragment)” yielded a Kd [3] of 4.6 nM, a dH [3] of -49.7 kcal/mol and a Kd [1] of 0.6 nM. For the same molecule, the dH [1] was -47.6 kcal/mol, the stoichiometry N [1] was 0.81 and the Kd [4] was 4.7 nM. It also gave a dH [4] of -39.1 kcal/mol.

“TgMyoA-C^ELC peptide (from UniProt O00934 777-798)” was tested, and the Kd [5] was 140 nM, the dH [5] was -18 kcal/mol and the stoichiometry N [5] was 0.77. It also gave a Kd [6] of 39 nM, a dH [6] of -15 kcal/mol and a stoichiometry N [6] of 0.85. For the same molecule, the Kd (TgELC2 S101A (T. gondii)) was 280 nM, the dH (TgELC2 S101A (T. gondii)) was -18 kcal/mol and the stoichiometry N (TgELC2 S101A (T. gondii)) was 0.88. The Kd (TgELC2 E10A (T. gondii)) was 190 nM, the dH (TgELC2 E10A (T. gondii)) was -17 kcal/mol and the stoichiometry N (TgELC2 E10A (T. gondii)) was 0.79. It also gave a Kd (TgELC2 F79A (T. gondii)) of 280 nM, a dH (TgELC2 F79A (T. gondii)) of -18 kcal/mol and a stoichiometry N (TgELC2 F79A (T. gondii)) of 0.84. The Kd [7] was 36 nM, the dH [7] was -13 kcal/mol and the stoichiometry N [7] was 1.05. For the same molecule, the Kd (TgELC2 S102A (T. gondii)) was 76 nM, the dH (TgELC2 S102A (T. gondii)) was -16 kcal/mol and the stoichiometry N (TgELC2 S102A (T. gondii)) was 0.79. For the same molecule, the Kd [8] was 1100 nM, the dH [8] was -21 kcal/mol and the stoichiometry N [8] was 0.75. It also gave a Kd [9] of 82 nM, a dH [9] of -18 kcal/mol and a stoichiometry N [9] of 0.77. The Kd [10] was 57 nM, the dH [10] was -13 kcal/mol and the stoichiometry N [10] was 0.81.

VEWENCVSVIEAAILKHKYKQKVNKNIPSLLRVQAHIRKKMV (domain or fragment) [PfMyoA-C (775-816), recombinant, expressed with MTIP 77-204]: binds (MTIP residues 77-204).

B1: P. falciparum essential light chain (PfELC) (natural protein)
chain: MASDMEEKFREAFILFSSCSDHIEMYKFFELMNSFGIILTNDEKAALPNDINMDYWLNFAKKHYNYEQPFKHINNVNEQNTNVQIKIDNFLGIMKALDTRLTESDLNILLQITNPENKSTLNLKTVSQKLTESI
notes: also called full-length PfELC; source: E. coli BL21-CodonPlus(DE3)-RIL, purified (Ni-IMAC, TEV, SEC)
For B1, the Kd [11] was 109 ± 6.2 nM, the dH [11] was -13.4 ± 0.1 kcal/mol and the “stoichiometry N” value [11] was 0.86 ± 0.01.

B2: PfELC S127D (phosphomimetic) (natural protein)
chain: MASDMEEKFREAFILFSSCSDHIEMYKFFELMNSFGIILTNDEKAALPNDINMDYWLNFAKKHYNYEQPFKHINNVNEQNTNVQIKIDNFLGIMKALDTRLTESDLNILLQITNPENKSTLNLKTVDQKLTESI
notes: source: E. coli, purified (expressed and purified under identical conditions as the wild type)
With B2 the Kd [11] was 260 ± 26 nM, the dH [11] was -12.6 ± 0.2 kcal/mol and the “stoichiometry N” value [11] was 0.81 ± 0.01.

Source: publication PMC7555893, “Structural role of essential light chains in the apicomplexan glideosome” (Communications Biology, 2020)
